One series deals with PARP1 WT (UniProt P09874 1-1014). In words: fluorescence polarization; without HPF1; Kd only in Fig. 6f; SPR: 25 mM HEPES pH 7.4, 250 mM NaCl, 0.1 mM TCEP, 1 mM EDTA, 0.05% Tween20 (+/- 5 uM EB47); FP: 5 nM probe, 1.56-400 nM PARP1, buffer not stated; HXMS: 10 mM HEPES pD 7.0, 150 mM NaCl, RT. The conditions noted are these: protein: recombinant; tags: N-terminal His6; label: internal FAM (GCTGAGC FAM-TTCTGG...); dumbbell, two hairpins, central nick. For orientation: In fluorescence polarisation assays a small probe gives low polarisation when free and higher when bound to something large.

Another series has as its target PARP1 WT;HPF1 (human?;human, UniProt P09874;Q9NWY4 1-1014;1-346, |). In words: fluorescence polarization; 20 uM HPF1; P=0.014; SPR: 25 mM HEPES pH 7.4, 250 mM NaCl, 0.1 mM TCEP, 1 mM EDTA, 0.05% Tween20 (+/- 5 uM EB47); FP: 5 nM probe, 1.56-400 nM PARP1, buffer not stated; HXMS: 10 mM HEPES pD 7.0, 150 mM NaCl, RT. The conditions noted are these: protein: recombinant;recombinant; tags: N-terminal His6;none (SMT sumo-like His-tag removed with ULP1); copies: 1;1; label: internal FAM (GCTGAGC FAM-TTCTGG...); dumbbell, two hairpins, central nick.

The target in another series is PARP1 R865A (UniProt P09874 1-1014, R865A). In words: fluorescence polarization; without HPF1; P=0.000039; SPR: 25 mM HEPES pH 7.4, 250 mM NaCl, 0.1 mM TCEP, 1 mM EDTA, 0.05% Tween20 (+/- 5 uM EB47); FP: 5 nM probe, 1.56-400 nM PARP1, buffer not stated; HXMS: 10 mM HEPES pD 7.0, 150 mM NaCl, RT. The conditions noted are these: protein: recombinant; tags: N-terminal His6; label: internal FAM (GCTGAGC FAM-TTCTGG...); dumbbell, two hairpins, central nick.

The next series deals with PARP1 R865A;HPF1 (human?;human, UniProt P09874;Q9NWY4 1-1014;1-346, R865A|). In words: fluorescence polarization; 20 uM HPF1; no further increase vs R865A alone (P=0.087, ns); SPR: 25 mM HEPES pH 7.4, 250 mM NaCl, 0.1 mM TCEP, 1 mM EDTA, 0.05% Tween20 (+/- 5 uM EB47); FP: 5 nM probe, 1.56-400 nM PARP1, buffer not stated; HXMS: 10 mM HEPES pD 7.0, 150 mM NaCl, RT. The conditions noted are these: protein: recombinant;recombinant; tags: N-terminal His6;none (SMT sumo-like His-tag removed with ULP1); copies: 1;1; label: internal FAM (GCTGAGC FAM-TTCTGG...); dumbbell, two hairpins, central nick.
Chain of PARP1 R865A;HPF1 (P09874 whole entry R865A, chain 1 of 2): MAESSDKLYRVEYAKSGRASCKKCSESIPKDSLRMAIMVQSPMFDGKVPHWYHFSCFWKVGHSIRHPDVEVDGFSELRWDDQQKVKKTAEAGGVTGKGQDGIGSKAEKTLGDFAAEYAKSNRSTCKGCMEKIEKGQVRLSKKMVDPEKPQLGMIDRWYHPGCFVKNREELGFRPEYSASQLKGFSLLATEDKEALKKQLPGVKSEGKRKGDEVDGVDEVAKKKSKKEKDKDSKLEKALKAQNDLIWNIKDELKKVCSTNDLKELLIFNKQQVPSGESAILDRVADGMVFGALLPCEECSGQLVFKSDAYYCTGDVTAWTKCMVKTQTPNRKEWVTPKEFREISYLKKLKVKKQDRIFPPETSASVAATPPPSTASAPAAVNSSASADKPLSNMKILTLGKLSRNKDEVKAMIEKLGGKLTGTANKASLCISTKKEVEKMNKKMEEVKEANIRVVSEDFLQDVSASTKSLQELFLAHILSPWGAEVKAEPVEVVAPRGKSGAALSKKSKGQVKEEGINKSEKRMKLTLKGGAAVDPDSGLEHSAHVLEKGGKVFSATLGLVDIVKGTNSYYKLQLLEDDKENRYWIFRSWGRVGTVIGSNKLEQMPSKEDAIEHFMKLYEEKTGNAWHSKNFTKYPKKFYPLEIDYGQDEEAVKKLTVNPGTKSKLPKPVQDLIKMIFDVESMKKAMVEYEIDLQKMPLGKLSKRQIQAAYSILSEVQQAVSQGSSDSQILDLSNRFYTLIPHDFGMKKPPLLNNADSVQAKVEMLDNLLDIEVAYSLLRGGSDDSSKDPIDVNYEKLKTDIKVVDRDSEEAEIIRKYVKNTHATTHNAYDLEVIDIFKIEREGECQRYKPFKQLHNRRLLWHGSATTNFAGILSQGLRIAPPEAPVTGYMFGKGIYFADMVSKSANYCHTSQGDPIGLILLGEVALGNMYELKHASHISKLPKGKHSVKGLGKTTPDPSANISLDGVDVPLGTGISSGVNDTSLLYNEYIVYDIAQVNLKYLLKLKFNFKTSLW
Chain of PARP1 R865A;HPF1 (Q9NWY4 whole entry, chain 2 of 2): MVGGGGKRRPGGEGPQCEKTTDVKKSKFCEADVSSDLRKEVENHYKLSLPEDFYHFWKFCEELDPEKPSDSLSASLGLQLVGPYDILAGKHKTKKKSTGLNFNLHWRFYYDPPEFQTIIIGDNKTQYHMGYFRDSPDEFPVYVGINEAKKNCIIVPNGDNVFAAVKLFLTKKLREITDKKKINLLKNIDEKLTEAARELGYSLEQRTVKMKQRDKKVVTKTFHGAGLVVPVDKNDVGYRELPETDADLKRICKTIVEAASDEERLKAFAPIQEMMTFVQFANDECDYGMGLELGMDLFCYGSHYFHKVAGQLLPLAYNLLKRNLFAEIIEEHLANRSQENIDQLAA

Chain of PARP1 R865A (P09874 whole entry R865A): as the sequence (P09874 whole entry R865A, chain 1 of 2) above
Chain of PARP1 WT;HPF1 (P09874 whole entry, chain 1 of 2): as the sequence (P09874 whole entry R865A, chain 1 of 2) above, with A865R counted along it
Chain of PARP1 WT;HPF1 (Q9NWY4 whole entry, chain 2 of 2): as the sequence (Q9NWY4 whole entry, chain 2 of 2) above
Chain of PARP1 WT (P09874 whole entry): as the sequence (P09874 whole entry R865A, chain 1 of 2) above, with A865R counted along it

On to GCTGAGCTTCTGGTGAAGCTCAGCTCGCGGCAGCTGGTGCTGCCGCGA (structured_DNA) [FAM dumbbell with central nick (FP)], for which the binding result with PARP1 WT and with PARP1 R865A;HPF1 was “binds” throughout. Further, the binding signal with PARP1 WT;HPF1 is ~2 fold higher affinity than PARP1 WT alone; with PARP1 R865A it was 4 fold higher affinity than PARP1 WT.

Source of the values: paper PMC8602370, “HPF1 dynamically controls the PARP1/2 balance between initiating and elongating ADP-ribose modifications”.
